# Numbered stars: 1 amine (or outer) side, 2 acyl side, 3 side chain; on linkers, the order of the positions; unused ones are H or OH. Square brackets hold non-standard residues; d marks the D form. Side chains are listed from the residue outwards. Ends that are not written are not given here. * marks the point of attachment. C20 diacid = O=C(O)CCCCCCCCCCCCCCCCCCC(=O)*; γGlu = O=C(O)[C@H](CCC(=O)[*:2])N[*:1]; AEEA = NCCOCCOCC(=O)O; Aib = CC(C)(N)C(=O)O
# T1: human GIP receptor (human, UniProt P48546 22-466)
# T1 sequence (looked up): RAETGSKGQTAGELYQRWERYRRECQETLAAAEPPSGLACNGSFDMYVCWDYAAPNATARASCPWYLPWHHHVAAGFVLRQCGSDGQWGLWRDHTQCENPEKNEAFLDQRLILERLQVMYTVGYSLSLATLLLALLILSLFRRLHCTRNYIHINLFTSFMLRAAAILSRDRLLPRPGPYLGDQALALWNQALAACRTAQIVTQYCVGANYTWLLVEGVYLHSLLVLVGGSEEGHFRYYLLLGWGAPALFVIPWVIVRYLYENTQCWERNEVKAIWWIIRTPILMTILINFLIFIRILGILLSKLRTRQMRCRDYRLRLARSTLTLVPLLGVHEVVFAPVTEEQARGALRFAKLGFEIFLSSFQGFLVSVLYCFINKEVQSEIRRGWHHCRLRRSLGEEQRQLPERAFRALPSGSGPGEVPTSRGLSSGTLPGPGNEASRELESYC
# B1: Example 10 (peptide)
# peptide: Y[Aib]EGTFTSDYSILLDSIAQ[Aib]AFIK([AEEA-AEEA-γGlu-C20 diacid])YLLA[Aib]GPSSGAPPPS-NH2
# modifications: N-terminus assumed
# SMILES: CC[C@H](C)[C@H](NC(=O)[C@H](CO)NC(=O)[C@H](CC(=O)O)NC(=O)[C@H](CC(C)C)NC(=O)[C@H](CC(C)C)NC(=O)[C@@H](NC(=O)[C@H](CO)NC(=O)[C@H](Cc1ccc(O)cc1)NC(=O)[C@H](CC(=O)O)NC(=O)[C@H](CO)NC(=O)[C@@H](NC(=O)[C@H](Cc1ccccc1)NC(=O)[C@@H](NC(=O)CNC(=O)[C@H](CCC(=O)O)NC(=O)C(C)(C)NC(=O)[C@@H](N)Cc1ccc(O)cc1)[C@@H](C)O)[C@@H](C)O)[C@@H](C)CC)C(=O)N[C@@H](C)C(=O)N[C@@H](CCC(N)=O)C(=O)NC(C)(C)C(=O)N[C@@H](C)C(=O)N[C@@H](Cc1ccccc1)C(=O)N[C@H](C(=O)N[C@@H](CCCCNC(=O)COCCOCCNC(=O)COCCOCCNC(=O)CC[C@H](NC(=O)CCCCCCCCCCCCCCCCCCC(=O)O)C(=O)O)C(=O)N[C@@H](Cc1ccc(O)cc1)C(=O)N[C@@H](CC(C)C)C(=O)N[C@@H](CC(C)C)C(=O)N[C@@H](C)C(=O)NC(C)(C)C(=O)NCC(=O)N1CCC[C@H]1C(=O)N[C@@H](CO)C(=O)N[C@@H](CO)C(=O)NCC(=O)N[C@@H](C)C(=O)N1CCC[C@H]1C(=O)N1CCC[C@H]1C(=O)N1CCC[C@H]1C(=O)N[C@@H](CO)C(N)=O)[C@@H](C)CC
# B2: Example 11 (peptide)
# peptide: Y[Aib]EGTFTSDYSILLDSIAQ[Aib]AFIEYLLK([AEEA-AEEA-γGlu-C20 diacid])[Aib]GPSSGAPPPS-NH2
# modifications: N-terminus assumed
# SMILES: CC[C@H](C)[C@H](NC(=O)[C@H](CO)NC(=O)[C@H](CC(=O)O)NC(=O)[C@H](CC(C)C)NC(=O)[C@H](CC(C)C)NC(=O)[C@@H](NC(=O)[C@H](CO)NC(=O)[C@H](Cc1ccc(O)cc1)NC(=O)[C@H](CC(=O)O)NC(=O)[C@H](CO)NC(=O)[C@@H](NC(=O)[C@H](Cc1ccccc1)NC(=O)[C@@H](NC(=O)CNC(=O)[C@H](CCC(=O)O)NC(=O)C(C)(C)NC(=O)[C@@H](N)Cc1ccc(O)cc1)[C@@H](C)O)[C@@H](C)O)[C@@H](C)CC)C(=O)N[C@@H](C)C(=O)N[C@@H](CCC(N)=O)C(=O)NC(C)(C)C(=O)N[C@@H](C)C(=O)N[C@@H](Cc1ccccc1)C(=O)N[C@H](C(=O)N[C@@H](CCC(=O)O)C(=O)N[C@@H](Cc1ccc(O)cc1)C(=O)N[C@@H](CC(C)C)C(=O)N[C@@H](CC(C)C)C(=O)N[C@@H](CCCCNC(=O)COCCOCCNC(=O)COCCOCCNC(=O)CC[C@H](NC(=O)CCCCCCCCCCCCCCCCCCC(=O)O)C(=O)O)C(=O)NC(C)(C)C(=O)NCC(=O)N1CCC[C@H]1C(=O)N[C@@H](CO)C(=O)N[C@@H](CO)C(=O)NCC(=O)N[C@@H](C)C(=O)N1CCC[C@H]1C(=O)N1CCC[C@H]1C(=O)N1CCC[C@H]1C(=O)N[C@@H](CO)C(N)=O)[C@@H](C)CC
# B3: Example 12 (peptide)
# peptide: Y[Aib]EGTFTSDYSILLDKIAQK([AEEA-AEEA-γGlu-C20 diacid])AFIEYLIEGGPSSGAPPPS-NH2
# modifications: N-terminus assumed
# SMILES: CC[C@H](C)[C@H](NC(=O)[C@H](CCCCN)NC(=O)[C@H](CC(=O)O)NC(=O)[C@H](CC(C)C)NC(=O)[C@H](CC(C)C)NC(=O)[C@@H](NC(=O)[C@H](CO)NC(=O)[C@H](Cc1ccc(O)cc1)NC(=O)[C@H](CC(=O)O)NC(=O)[C@H](CO)NC(=O)[C@@H](NC(=O)[C@H](Cc1ccccc1)NC(=O)[C@@H](NC(=O)CNC(=O)[C@H](CCC(=O)O)NC(=O)C(C)(C)NC(=O)[C@@H](N)Cc1ccc(O)cc1)[C@@H](C)O)[C@@H](C)O)[C@@H](C)CC)C(=O)N[C@@H](C)C(=O)N[C@@H](CCC(N)=O)C(=O)N[C@@H](CCCCNC(=O)COCCOCCNC(=O)COCCOCCNC(=O)CC[C@H](NC(=O)CCCCCCCCCCCCCCCCCCC(=O)O)C(=O)O)C(=O)N[C@@H](C)C(=O)N[C@@H](Cc1ccccc1)C(=O)N[C@H](C(=O)N[C@@H](CCC(=O)O)C(=O)N[C@@H](Cc1ccc(O)cc1)C(=O)N[C@@H](CC(C)C)C(=O)N[C@H](C(=O)N[C@@H](CCC(=O)O)C(=O)NCC(=O)NCC(=O)N1CCC[C@H]1C(=O)N[C@@H](CO)C(=O)N[C@@H](CO)C(=O)NCC(=O)N[C@@H](C)C(=O)N1CCC[C@H]1C(=O)N1CCC[C@H]1C(=O)N1CCC[C@H]1C(=O)N[C@@H](CO)C(N)=O)[C@@H](C)CC)[C@@H](C)CC
# B4: Example 13 (peptide)
# peptide: Y[Aib]EGTFTSDYSILLD[Aib]IAQK([AEEA-AEEA-γGlu-C20 diacid])AFIEYLIEGGPSSGAPPPS-NH2
# modifications: N-terminus assumed
# SMILES: CC[C@H](C)[C@H](NC(=O)[C@H](CC(C)C)NC(=O)[C@H](Cc1ccc(O)cc1)NC(=O)[C@H](CCC(=O)O)NC(=O)[C@@H](NC(=O)[C@H](Cc1ccccc1)NC(=O)[C@H](C)NC(=O)[C@H](CCCCNC(=O)COCCOCCNC(=O)COCCOCCNC(=O)CC[C@H](NC(=O)CCCCCCCCCCCCCCCCCCC(=O)O)C(=O)O)NC(=O)[C@H](CCC(N)=O)NC(=O)[C@H](C)NC(=O)[C@@H](NC(=O)C(C)(C)NC(=O)[C@H](CC(=O)O)NC(=O)[C@H](CC(C)C)NC(=O)[C@H](CC(C)C)NC(=O)[C@@H](NC(=O)[C@H](CO)NC(=O)[C@H](Cc1ccc(O)cc1)NC(=O)[C@H](CC(=O)O)NC(=O)[C@H](CO)NC(=O)[C@@H](NC(=O)[C@H](Cc1ccccc1)NC(=O)[C@@H](NC(=O)CNC(=O)[C@H](CCC(=O)O)NC(=O)C(C)(C)NC(=O)[C@@H](N)Cc1ccc(O)cc1)[C@@H](C)O)[C@@H](C)O)[C@@H](C)CC)[C@@H](C)CC)[C@@H](C)CC)C(=O)N[C@@H](CCC(=O)O)C(=O)NCC(=O)NCC(=O)N1CCC[C@H]1C(=O)N[C@@H](CO)C(=O)N[C@@H](CO)C(=O)NCC(=O)N[C@@H](C)C(=O)N1CCC[C@H]1C(=O)N1CCC[C@H]1C(=O)N1CCC[C@H]1C(=O)N[C@@H](CO)C(N)=O
# B5: Example 14 (peptide)
# peptide: Y[Aib]EGTFTSDYSILLDKIAQKEFIQYLLE[Aib]GPSSGAPPPS-NH2
# modifications: not fully specified (residue 20)
# B6: Example 15 (peptide)
# peptide: H[Aib]EGTFTSDYSILLDKKAQ[Aib]AFIEYLLE[Aib]GPSSGAPPPS-NH2
# modifications: not fully specified (residue 17)
# B7: Example 16 (peptide)
# peptide: H[Aib]EGTFTSDYSILLDKK([AEEA-AEEA-γGlu-C20 diacid])AQ[Aib]AFIEYLIE[Aib]GPSSGAPPPS-NH2
# modifications: N-terminus assumed
# SMILES: CC[C@H](C)[C@H](NC(=O)[C@H](Cc1ccccc1)NC(=O)[C@H](C)NC(=O)C(C)(C)NC(=O)[C@H](CCC(N)=O)NC(=O)[C@H](C)NC(=O)[C@H](CCCCNC(=O)COCCOCCNC(=O)COCCOCCNC(=O)CC[C@H](NC(=O)CCCCCCCCCCCCCCCCCCC(=O)O)C(=O)O)NC(=O)[C@H](CCCCN)NC(=O)[C@H](CC(=O)O)NC(=O)[C@H](CC(C)C)NC(=O)[C@H](CC(C)C)NC(=O)[C@@H](NC(=O)[C@H](CO)NC(=O)[C@H](Cc1ccc(O)cc1)NC(=O)[C@H](CC(=O)O)NC(=O)[C@H](CO)NC(=O)[C@@H](NC(=O)[C@H](Cc1ccccc1)NC(=O)[C@@H](NC(=O)CNC(=O)[C@H](CCC(=O)O)NC(=O)C(C)(C)NC(=O)[C@@H](N)Cc1c[nH]cn1)[C@@H](C)O)[C@@H](C)O)[C@@H](C)CC)C(=O)N[C@@H](CCC(=O)O)C(=O)N[C@@H](Cc1ccc(O)cc1)C(=O)N[C@@H](CC(C)C)C(=O)N[C@H](C(=O)N[C@@H](CCC(=O)O)C(=O)NC(C)(C)C(=O)NCC(=O)N1CCC[C@H]1C(=O)N[C@@H](CO)C(=O)N[C@@H](CO)C(=O)NCC(=O)N[C@@H](C)C(=O)N1CCC[C@H]1C(=O)N1CCC[C@H]1C(=O)N1CCC[C@H]1C(=O)N[C@@H](CO)C(N)=O)[C@@H](C)CC
# Target: human GLP-1 receptor (human, UniProt P43220 24-463)
# Experiment: cell-based or functional assay
Binder,hGLP1R cAMP EC50 ratio,hGLP1R cAMP Rel EC50 [nM]
B1,0.00912,7.64
B2,0.0111,6.89
B3,0.0603,1.15
B4,0.0133,5.39
B5,0.0306,1.87
B6,1.65,0.0336
B7,1.43,0.0437

# Target: T1, human GIP receptor
# Experiment: cell-based or functional assay
Binder,hGIPR cAMP EC50 ratio,hGIPR cAMP Rel EC50 [nM]
B1,0.151,1.28
B2,0.399,0.486
B3,0.659,0.3
B4,0.18,1.05
B5,0.545,0.284
B6,0.273,0.613
B7,0.157,0.975
